Laboratory results from US20230279126A1 (published 2023).
Numbering of substitutions follows the chain as printed.

T1: extracellular domain of mouse IL23R (mIL23R ECD) (mouse, UniProt Q8K4B4 24-374)
T1 construct: The immunogen was an ECD-human IgG1 hinge-Fc fusion
T1 sequence: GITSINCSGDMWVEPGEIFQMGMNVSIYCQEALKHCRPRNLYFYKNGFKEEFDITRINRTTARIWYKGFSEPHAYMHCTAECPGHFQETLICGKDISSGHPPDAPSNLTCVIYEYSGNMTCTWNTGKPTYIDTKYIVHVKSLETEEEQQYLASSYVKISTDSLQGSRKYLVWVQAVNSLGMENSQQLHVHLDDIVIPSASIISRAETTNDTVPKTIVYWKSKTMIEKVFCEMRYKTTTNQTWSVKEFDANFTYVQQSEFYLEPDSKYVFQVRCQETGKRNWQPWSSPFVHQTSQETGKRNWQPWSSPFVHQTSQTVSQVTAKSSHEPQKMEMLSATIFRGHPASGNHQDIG

B1: mIL23R VHH12 (VHH)
VHH: QVQLQESGGGSVQAGGSLRLSCAASGYTYSSCTMGWYRQAPGKERELVSMLISDGSTFYADSVKGRFTFSQENAKNTVYLQMNSLKPEDTAMYYCGCATLGSRTVWGQGTQVTVSS
notes: Phagemid clone with his-tag, periplasmic extract
B2: mIL23R VHH36 (VHH)
VHH: B1 VHH with Y27D, E46D, L51V, I52F, V105I
notes: as for B1
B3: mIL23R VHH11 (VHH)
VHH: B1 VHH with N76S
notes: as for B1
B4: mIL23R VHH10 (VHH)
VHH: B1 VHH with Y27D, E46D, I52M, S53G, V105I
notes: as for B1
B5: mIL23R VHH8 (VHH)
VHH: B1 VHH with A23T, G26R, L51V, I52F, V105I
notes: as for B1
B6: mIL23R VHH16 (VHH)
VHH: B1 VHH with Y27D, E46D, I52M, S53G, S84N, V105I
notes: as for B1
B7: mIL23R VHH25 (VHH)
VHH: B1 VHH with Y94F
notes: as for B1
B8: mIL23R VHH1 (VHH)
VHH: B1 VHH with N73Y
notes: as for B1
B9: mIL23R VHH27 (VHH)
VHH: B1 VHH with F69S
notes: as for B1
B10: mIL23R VHH15 (VHH)
VHH: B1 VHH with L51V, I52F, V105I
notes: as for B1
B11: mIL23R VHH29 (VHH)
VHH: QVQLQESGGGLVQPGGSLRLSCAASGFTFSTSAMTWVRQAPGKGLDWVSGIDSGGTTVYADSVKGRFTISKDNAKNTLYLQMNSLKTEDTAVYYCATGLPWGNTWRTRGQGTQVTVSS
notes: as for B1
B12: mIL23R VHH7 (VHH)
VHH: B11 VHH with T31R, K71R, N73S, T97I
notes: as for B1
B13: mIL23R VHH21 (VHH)
VHH: B11 VHH with A24T, T31S, R108T
notes: as for B1
B14: mIL23R VHH37 (VHH)
VHH: B11 VHH with A24T, T31S, S32G, R108T
notes: as for B1
B15: mIL23R VHH35 (VHH)
VHH: B11 VHH with S21A, A23S, T31S, F67A, S70L
notes: as for B1
B16: mIL23R VHH32 (VHH)
VHH: B11 VHH with Q13R, T31R, K71R, N73S, T97I
notes: as for B1
B17: mIL23R VHH39 (VHH)
VHH: B11 VHH with T31R, K71R, N73S, S84G, T97I
notes: as for B1
B18: mIL23R VHH14 (VHH)
VHH: B11 VHH with S30R, K71R, N73S, T97M
notes: as for B1
B19: mIL23R VHH41 (VHH)
VHH: B11 VHH with S21T
notes: as for B1
B20: mIL23R VHH33 (VHH)
VHH: B11 VHH with A23T, A24T, T31S, R108T
notes: as for B1
B21: mIL23R VHH38 (VHH)
VHH: B11 VHH with T104I
notes: as for B1
B22: mIL23R VHH20 (VHH)
VHH: B11 VHH with T31S, F67A, S70L
notes: as for B1

Target: T1, extracellular domain of mouse IL23R …
Experiment: periplasmic extract ELISA (PE-ELISA) of phage clones, colorimetric
Outline: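 VHH domains were obtained from camels immunized sequentially with human and mouse receptor extracellular domain–Fc fusion proteins, then cloned with a his-tag into a phagemid in E. coli. The phage library was panned over several rounds on the human or mouse extracellular domain, and single clones were checked for selective binding by colorimetric periplasmic extract ELISA.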

Binder | binding result
B1 | binds
B2 | binds
B3 | binds
B4 | binds
B5 | binds
B6 | binds
B7 | binds
B8 | binds
B9 | binds
B10 | binds
B11 | binds
B12 | binds
B13 | binds
B14 | binds
B15 | binds
B16 | binds
B17 | binds
B18 | binds
B19 | binds
B20 | binds
B21 | binds
B22 | binds
